According to patent publication US20070148164A1 (Biogen, published 2007):

B1: huCBE11 altered antibody with mutation Q438E (antibody, human IgG1, kappa)
heavy: not shown
light: DIQMTQSPSSLSASVGDRVTITCKAGQDIKSYLSWYQQKPGKAPKLLIYYATRLADGVPSRFSGSGSGTDYTLTISSLQPEDFATYYCLQHGESPWTFGGGTKLEIKRTVAAPSVFIFPPSDEQLKSGTASVVCLLNNFYPREAKVQWKVDNALQSGNSQESVTEQDSKDSTYSLSSTLTLSKADYEKHKVYACEVTHQGLSSPVTKSFNRGEC
notes: Position is in EU numbering
B2: huCBE11 altered antibody with mutation N434L (antibody, human IgG1, kappa)
heavy: not shown
light: B1 light
notes: Position is in EU numbering
B3: K288M (antibody)
heavy: not shown
light: B1 light
notes: EU numbering, EU N297 = residue 300 of the chain; the sheets number them 2 and 4; also called huCBE11 altered antibody with mutation K288M; copies: 2 + 2
B4: K288D (antibody, human IgG1, kappa)
heavy: not shown
light: B1 light
notes: EU numbering, EU N297 = residue 300 of the chain; the sheets number them 2 and 4; also called huCBE11 altered antibody with mutation K288D; copies: 2 + 2
B5: R255L (antibody)
heavy: not shown
light: B1 light
notes: EU numbering, EU N297 = residue 300 of the chain; the sheets number them 2 and 4; also called huCBE11 altered antibody with mutation R255L; copies: 2 + 2
B6: K288E (antibody, human IgG1, kappa)
heavy: not shown
light: B1 light
notes: EU numbering, EU N297 = residue 300 of the chain; the sheets number them 2 and 4; also called huCBE11 altered antibody with mutation K288E; copies: 2 + 2
B7: A287E (antibody)
heavy: not shown
light: B1 light
notes: EU numbering, EU N297 = residue 300 of the chain; the sheets number them 2 and 4; also called huCBE11 altered antibody with mutation A287E; copies: 2 + 2
B8: A287D (antibody)
heavy: not shown
light: B1 light
notes: EU numbering, EU N297 = residue 300 of the chain; the sheets number them 2 and 4; also called huCBE11 altered antibody with mutation A287D; copies: 2 + 2
B9: V284D (antibody, human IgG1, kappa)
heavy: not shown
light: B1 light
notes: EU numbering, EU N297 = residue 300 of the chain; the sheets number them 2 and 4; also called huCBE11 altered antibody with mutation V284D; copies: 2 + 2
B10: E345Q (antibody, human IgG1, kappa)
heavy: not shown
light: B1 light
notes: EU numbering, EU N297 = residue 300 of the chain; the sheets number them 2 and 4; also called huCBE11 altered antibody with mutation E345Q; copies: 2 + 2
B11: H285F (antibody)
heavy: not shown
light: B1 light
notes: EU numbering, EU N297 = residue 300 of the chain; the sheets number them 2 and 4; also called huCBE11 altered antibody with mutation H285F; copies: 2 + 2
B12: D376N (antibody)
heavy: not shown
light: B1 light
notes: EU numbering, EU N297 = residue 300 of the chain; the sheets number them 2 and 4; also called huCBE11 altered antibody with mutation D376N; copies: 2 + 2
B13: V279E (antibody, human IgG1, kappa)
heavy: not shown
light: B1 light
notes: EU numbering, EU N297 = residue 300 of the chain; the sheets number them 2 and 4; also called huCBE11 altered antibody with mutation V279E; copies: 2 + 2
B14: huCBE11 altered antibody with mutation V282E (antibody, human IgG1, kappa)
heavy: not shown
light: B1 light
notes: Position is in EU numbering
B15: S304E (antibody, human IgG1, kappa)
heavy: not shown
light: B1 light
notes: EU numbering, EU N297 = residue 300 of the chain; the sheets number them 2 and 4; also called huCBE11 altered antibody with mutation S304E; copies: 2 + 2
B16: E345R (antibody)
heavy: not shown
light: B1 light
notes: EU numbering, EU N297 = residue 300 of the chain; the sheets number them 2 and 4; also called huCBE11 altered antibody with mutation E345R; copies: 2 + 2
B17: H285D (antibody, human IgG1, kappa)
heavy: not shown
light: B1 light
notes: EU numbering, EU N297 = residue 300 of the chain; the sheets number them 2 and 4; also called huCBE11 altered antibody with mutation H285D; copies: 2 + 2
B18: huCBE11 altered antibody with mutation K290D (antibody, human IgG1, kappa)
heavy: not shown
light: B1 light
notes: Position is in EU numbering
B19: R255M (antibody)
heavy: not shown
light: B1 light
notes: EU numbering, EU N297 = residue 300 of the chain; the sheets number them 2 and 4; also called huCBE11 altered antibody with mutation R255M; copies: 2 + 2
B20: huCBE11 altered antibody with mutation S304D (antibody, human IgG1, kappa)
heavy: not shown
light: B1 light
notes: Position is in EU numbering
B21: L314K (antibody)
heavy: not shown
light: B1 light
notes: EU numbering, EU N297 = residue 300 of the chain; the sheets number them 2 and 4; also called huCBE11 altered antibody with mutation L314K; copies: 2 + 2
B22: huCBE11 altered antibody with mutation M252T (antibody, human IgG1, kappa)
heavy: not shown
light: B1 light
notes: Position is in EU numbering
B23: huCBE11 altered antibody with mutation M252S (antibody, human IgG1, kappa)
heavy: not shown
light: B1 light
notes: Position is in EU numbering

Each binder was assayed against T1, biotinylated human FcRn-huM4Fc fusion protein (human, biotinylated with BiotinXX sulfosuccinimidyl ester (sites not given)) (assay: AlphaScreen competition, pH 6.0: altered antibody against human IgG1 acceptor beads for biotinylated hFcRnFc; reference control antibody).
T1 construct: also called bhFcRnFc; biotinylated Fc/FcRn fusion protein

Row | Binder | fold lower FcRn binding affinity than the control antibody
1 | B1 | ~1500 fold

The binders below were run against T1, biotinylated human FcRn-huM4Fc fusion … (assay: FRET competition, pH 5.8: competitor mAb against Eu-labelled h5C8 for biotinylated hFcRnFc; reference w.t. control antibody).

Row | Binder | fold lower FcRn binding affinity than the control antibody
2 | B2 | ~4000 fold

The binders below were run against T1, biotinylated human FcRn-huM4Fc fusion … (assay: AlphaScreen competition at pH 6.0: antibody in solution against human IgG1 acceptor beads for bhFcRnFc on streptavidin donor beads; plotted is IC50 (ug/ml by paragraph 723, no unit on the sheet)).

Row | Binder | binding result
3 | B3 | binds
4 | B4 | binds
5 | B5 | binds
6 | B6 | binds
7 | B7 | binds

What follows are binders tested against T1, biotinylated human FcRn-huM4Fc fusion … (assay: FRET competition at pH 5.8: unlabelled competitor mAb against Eu-labelled h5C8 for bhFcRnFc; plotted is mutant IC50/wt IC50).

Row | Binder | binding result
8 | B8 | binds
9 | B9 | binds
10 | B10 | binds
11 | B11 | binds
12 | B12 | binds
13 | B13 | binds
14 | B14 | binds
15 | B15 | binds
16 | B16 | binds
17 | B17 | binds
18 | B18 | binds
19 | B19 | binds
20 | B20 | binds
21 | B21 | binds
22 | B22 | binds
23 | B23 | binds
